From article PMC7954794, “Protein context shapes the specificity of SH3 domain-mediated interactions in vivo” (Nature Communications, 2021)

Legend:
Type in all cases: cell-based, Saccharomyces cerevisiae
Lsb3 = assay: Deep mutational scanning of Abp1 SH3, Abp1-Lsb3 DHFR-PCA (DMS score); settings: Abp1-Lsb3 DHFR-PCA, MTX2; for LSB3_MTX2: frequencies normalized to the reference condition: single amino acid variants of Abp1 SH3
Procedure: (§1) Single site mutation libraries were generated by a PCR-based saturation mutagenesis method[50] as described below. The mutagenesis was carried out on the pUC19 plasmid containing the SH3 domain sequence of ABP1 flanked by its homology arms subsequently used in the CRISPR mediated genomic re-integration. We used oligos containing degenerate nucleotides (NNN) to carry out the mutagenesis at each codon of the domain sequence. In the first step of the two-step PCR procedure (short PCR step), an amplicon was generated with an oligo containing the degenerate codon which is positioned within the domain sequence, and another oligo lying outside Abp1 sequence in the plasmid. Short PCR step was carried out with the following settings: 5 min at 95 °C, 35 cycles: 20 s at 98 °C, 15 s at 60 °C, 30 s at 72 °C, and a final extension of 1 min at 72 °C. The amplicon generated in this step was used as a mega primer in the second step (long PCR step) to amplify the whole plasmid. Long PCR step was carried out with the following settings: 5 min at 95 °C, 22 cycles: 20 s at 98 °C, 15 s at 68 °C, 3 min 30 s at 72 °C, and a final extension of 5 min at 72 °C. The long PCR product was digested for 2 h at 37 °C with DpnI. The digestion product was then transformed into E. coli MC1061 competent cells. In order to obtain most of the 64 possible codons, we recovered ~1000 colonies from each plate to retrieve the plasmid single mutant libraries. Saturation mutagenesis was carried out in a codon-position-wise manner. Mutants at each position were stored separately. Library quality control was assessed by amplifying the purified plasmid DNA preparations by PCR followed by Illumina sequencing as described below. The genomic insertion of the mutant libraries (one library per amino acid position) was performed by targeting the stuffer sequence in the ABP1 SH3-deleted strain as described in the strain construction section. ABP1 SH3-deleted yeast competent cells were co-transformed with pCAS containing the stuffer-specific gRNA and PCR amplified ABP1 SH3 single position mutated libraries from the pUC19 preparations. As for the library generation, ~1000 colonies from each plate were retrieved. Glycerol stocks of yeast cells were kept for each position (58 different stocks corresponding to the 58 amino acid positions of Abp1 SH3). The stocks were also validated by Illumina sequencing (see below).
(§2) Liquid DHFR-PCA experiments were performed following the generation of the ABP1 SH3 single position mutated yeast strains and were performed in biological independent duplicates. An overnight culture was started in YPD + NAT by adding the same number of cells from each yeast mutant strain (master pool). Then, the master pool and Hua2-DHFR F[3] or Lsb3-DHFR F[3] preys strains were mixed in YPD (2:1) for mating and incubated for 8 h at 30 °C. Diploid cells were selected the first time by transferring the mixture in a YPD + NAT + HPH (OD 0.5) culture for 16 h at 30 °C. The next day, the first diploid selection was transferred in SC complete pH 6.0 + NAT + HPH at 0.5 OD and the culture was grown for 24 h at 30 °C. The validation of the yeast mutant libraries was done the next day with a fraction of the diploid cells (first DHFR-PCA experiment time point without PCA selection, reference condition S2) by amplifying ABP1 SH3 genomic sequence followed by Illumina sequencing as described in the section below. Following the selection, diploid cells OD was read using a TECAN Infinite F200 Pro, and dilutions to 0.1 OD in PCA selection media without agar in a 50 mL tube was done. Tubes were incubated at 30 °C for 72 h (second-time point of the DHFR-PCA experiment, first PCA selection). A fraction of the cells (5U OD) was collected for Illumina sequencing. The cells from the first PCA step were grown for a second PCA selection step using the same procedures. […]

Hua2 = assay: Deep mutational scanning of Abp1 SH3, Abp1-Hua2 DHFR-PCA (DMS score); settings: for hua2sc: Frequencies scaled to the synonymous mutation distribution (DMS score) / HUA2_MTX2: frequencies normalized to the reference condition: Abp1-Hua2 DHFR-PCA, MTX2; for HUA2_MTX2: frequencies normalized to the reference condition: single amino acid variants of Abp1 SH3; for quadrant (effect of mutation on Hua2 and Lsb3 interactions): classification from both Hua2 and Lsb3 DMS scores, Dest. both / Dest. Hua2 / Dest. Lsb3 / Neutral
Procedure: as §1, §2

ABP1 = assay: DHFR-PCA on solid medium, bait ABP1 (Fig. 1B); settings: bait ABP1, label = prey; for medrep (log2 median colony size normalized to plate background, PCA score): 2-4 replicates
Description: Supplement 41467_2021_21873_MOESM8_ESM.xlsx, sheet "Fig1B" | column: medsize; medrep; Ratio; Score

[1] = test system: 575 putative partners (preys) of 22 WT SH3-containing proteins; assay: DHFR-PCA on solid medium, WT and SH3-deleted baits (Fig. 1B); design: key to Score: 0: SH3-independent; 1: SH3-dependent PPIs; 2: SH3-inhibited PPIs; settings: for medrep (log2 median colony size normalized to plate background, PCA score): label = prey; for Ratio (SH3-deleted/WT medrep): only significant differences shown, PPIs completely lost have a ratio of 0.1, gained PPIs 2.5
Description: To assess the requirement of SH3 domains for PPIs in vivo, we first measured binary interactions between 22 WT SH3-containing proteins (Supplementary Fig. 1A) as baits and 575 putative partners from their interconnected signaling networks using the dihydrofolate reductase protein–fragment complementation assay (DHFR-PCA) in the budding yeast Saccharomyces cerevisiae. About 33% (202/607) of the PPIs detected were described before, mostly by direct methods (Supplementary Fig. 1B, C)[11]. We repeated the experiments with baits in which the SH3s were individually replaced with a flexible linker by genome editing (SH3 domain deletion/stuffing, Fig. 1A). The stuffer DNA sequence ([…]) codes for a small flexible poly-Gly with Ser peptide ([…]) that is inspired by previous experiments[12],[13]. About a third of the SH3-containing protein interactome is qualitatively or quantitatively SH3-dependent (171 PPIs out of 607, Fig. 1B and Supplementary Fig. 1B, C). We validated the vast majority of the quantitative changes in low-throughput experiments and excluded that this is simply due to changes in protein abundance in most cases (Supplementary Fig. 1D–G). SH3-binding motifs[14] are more frequent in the SH3-dependent PPI partners when compared to sequences from random proteins, SH3-independent PPI partners or PPI partners that are stronger or gained following SH3 deletions (p values = 1.5 × 10^−17, 0.0038 and 2.1 × 10^−08, respectively; Mann–Whitney test, one-tailed, Fig. 1C). The changes we measure are therefore enriched for PPIs that depend on the direct interactions of the domains with the PPI partners.
The complete list of strains, primers, and gRNAs used in this study can be found in Supplementary Tables 1–3. All constructed yeast strains were validated by polymerase chain reaction (PCR) and confirmed by Sanger sequencing of the locus of interest. Bait strains for the DHFR-PCA experiments were constructed as follows. The genes of interest were fused at their genomic 3′ end by replacing the stop codon with a linker ([…]), the DHFR F[1,2] followed by a smaller linker (GGGGS), a 1× FLAG tag ([…]) and the NATMX4 resistance cassette via homologous recombination (all amplified from pAG25-DHFR[1,2]-linker-FLAG). The set of 615 prey strains (DHFR F[3] fusions in the BY4742 background) were retrieved from the Yeast Protein Interactome Collection[43] with the exception of 73 that were reconstructed (Supplementary Tables 1 and 2). Knockout strains were taken from the yeast knockout collection except for ABP1, BEM1, BZZ1, and SLA1, which were reconstructed by replacing the ORFs with the NATMX4 resistance cassette by homologous recombination in the BY4741 background.
Yeast SH3 domain genomic sequences were replaced by CRISPR–Cas9 genome editing. Each SH3 domain (as defined by the SMART database V8.0 except for Ysc84 SH3 (as defined by PROSITE), see Source Data for all SH3 sequences and Supplementary Table 1 for primers used) was specifically targeted by one gRNA[46]. Yeast competent cells were co-transformed with a pCAS plasmid (Addgene plasmid 60847[47]) expressing both the gRNA of interest and Streptococcus pyogenes Cas9[46] and a donor DNA sequence (stuffer) with 60 bp homology arms surrounding the SH3 DNA sequence. The Stuffer DNA was either PCR amplified or digested from a plasmid. The stuffer DNA sequence ([…]) codes for a small flexible linker ([…]) inspired by protein linkers used in structural biology[12],[13]. This type of linker is frequently used for fusing proteins without affecting the structure of the linked proteins.
The overall DHFR-PCA pipeline is based on Tarassov et al.[43] and the procedures have also been published as a visualized protocol. The screens were performed with robotically manipulated pin tools (BM5-SC1, S&P Robotics Inc.). First, the preys were cherry-picked from 96-well plates to omnitrays in a 384 format on YPD + HPH solid media. […]

[2] = bait SLA1-2, DHFR-PCA, Replicates 4 (2 for YCR009C, YDR388W)
[3] = bait SLA1-3, DHFR-PCA, Replicates 4 (2 for YCR009C, YDR388W, YIL033C)

B1: ABP1 L48L (protein, UniProt P15891 2-592, looked up)
Actin-binding protein: ALEPIDYTTHSREIDAEYLKIVRGSDPDTTWLIISPNAKKEYEPESTGSSFHDFLQLFDETKVQYGLARVSPPGSDVEKIIIIGWCPDSAPLKTRASFAANFAAVANNLFKGYHVQVTARDEDDLDENELLMKISNAAGARYSIQTSSKQQGKASTPPVKKSFTPSKSPAPVSKKEPVKTPSPAPAAKISSRVNDNNDDDDWNEPELKERDFDQAPLKPNQSSYKPIGKIDLQKVIAEEKAKEDPRLVQKPTAAGSKIDPSSDIANLKNESKLKRDSEFNSFLGTTKPPSMTESSLKNDDDKVIKGFRNEKSPAQLWAERKAKQNSGNAETKAEAPKPEVPEDEPEGEPDVKDLKSKFEGLAASEKEEEEMENKFAPPPKKSEPTIISPKPFSKPQEPVKAEEAEQPKTDYKKIGNPLPGMHIEADNEEEPEENDDDWDDDEDEAAQPPLPSRNVASGAPVQKEEPEQEEIAPSLPSRNSIPAPKQEEAPEQAPEEEIEEEAEEAAPQLPSRSSAAPPPPPRRATPEKKPKENPWATAEYDYDAAEDNELTFVENDKIINIEFVDDDWWLGELEKDGSKGLFPSNYVSLGN
modifications: synonymous codon change L48L
For B1, the “lsb3sc: Frequencies scaled to the synonymous mutation distribution (DMS score)” value (shortened to “lsb3sc: Frequencies scaled”) (Lsb3) was -0.4967, the “LSB3_MTX2: frequencies normalized to the reference condition” value (“LSB3_MTX2: frequencies normalized” below) (Lsb3) was 1.0036 and the “hua2sc: Frequencies scaled to the synonymous mutation distribution (DMS score)” value (shortened to “hua2sc: Frequencies scaled”) (Hua2) was -0.5549. The “HUA2_MTX2: frequencies normalized to the reference condition” value (“HUA2_MTX2: frequencies normalized” below) (Hua2) was 1.058 and the “quadrant (effect of mutation on Hua2 and Lsb3 interactions)” value (shortened to “quadrant”) (Hua2) was “Neutral”.

B2: ABP1 F49F (protein, UniProt P15891 2-592, looked up)
Actin-binding protein: B1 Actin-binding protein
modifications: synonymous F49F
In the case of B2, the “lsb3sc: Frequencies scaled” value (Lsb3) is reported as -0.3759, the “LSB3_MTX2: frequencies normalized” value (Lsb3) is reported as 1.124 and the “hua2sc: Frequencies scaled” value (Hua2) is reported as 0.1177. The “HUA2_MTX2: frequencies normalized” value (Hua2) was 1.73 and the “quadrant” value (Hua2) was “Neutral”.

B3: ABP1 P50P (protein, UniProt P15891 2-592, looked up)
Actin-binding protein: B1 Actin-binding protein
modifications: synonymous codon change P50P
In the case of B3, the “lsb3sc: Frequencies scaled” value (Lsb3) is reported as -0.6263, the “LSB3_MTX2: frequencies normalized” value (Lsb3) is reported as 0.874 and the “hua2sc: Frequencies scaled” value (Hua2) is reported as -0.6569. For the same molecule, the “HUA2_MTX2: frequencies normalized” value (Hua2) was 0.9559 and the “quadrant” value (Hua2) was “Neutral”.

B4: YCR009C (protein, UniProt P25343 1-265, looked up)
Reduced viability upon …: MSWEGFKKAINRAGHSVIIKNVDKTIDKEYDMEERRYKVLQRAGEALQKEAKGFLDSLRAVTASQTTIAEVISNLYDDSKYVAGGGYNVGNYYLQCVQDFDSETVKQLDGPLRETVLDPITKFSTYFKEIEEAIKKRDHKKQDFDAAKAKVRRLVDKPAKDASKLPRAEKELSLAKDIFENLNNQLKTELPQLVSLRVPYFDPSFEALIKIQLRFCTDGYTRLAQIQQYLDQQSRDDYANGLLDTKIEELLGQMTSLDICALGIK
For B4, the “medrep (log2 median colony size normalized to plate background, PCA score)” value (ABP1) was 4.682, the “medrep (log2 median colony size normalized to plate background, PCA score)” value [1, 2] was 2.15 and the Score ([1]; bait SLA1-2, label = prey) was 1. For the same molecule, the “Ratio (SH3-deleted/WT medrep)” value ([1]; bait SLA1-2, label = prey) was 0.1, the “medrep (log2 median colony size normalized to plate background, PCA score)” value [1, 3] was 2.15 and the Score ([1]; bait SLA1-3, label = prey) was 0.

B5: YFR004W (protein, UniProt P43588 1-306, looked up)
Ubiquitin carboxyl-terminal …: MERLQRLMMNSKVGSADTGRDDTKETVYISSIALLKMLKHGRAGVPMEVMGLMLGEFVDDYTVNVVDVFAMPQSGTGVSVEAVDDVFQAKMMDMLKQTGRDQMVVGWYHSHPGFGCWLSSVDVNTQKSFEQLNSRAVAVVVDPIQSVKGKVVIDAFRLIDTGALINNLEPRQTTSNTGLLNKANIQALIHGLNRHYYSLNIDYHKTAKETKMLMNLHKEQWQSGLKMYDYEEKEESNLAATKSMVKIAEQYSKRIEEEKELTEEELKTRYVGRQDPKKHLSETADETLENNIVSVLTAGVNSVAIK
With B5 the “medrep (log2 median colony size normalized to plate background, PCA score)” value (ABP1) was 3.9898, the “Ratio (SH3-deleted/WT medrep)” value (ABP1; only significant differences showed, PPIs completely lost have a ratio of 0.1 and the gained PPIs 2.5) was 1.738 and the “medrep (log2 median colony size normalized to plate background, PCA score)” value [1, 2] was 2.485. The Score ([1]; bait SLA1-2, label = prey) was 1, the “Ratio (SH3-deleted/WT medrep)” value ([1]; bait SLA1-2, label = prey) was 0.1 and the “medrep (log2 median colony size normalized to plate background, PCA score)” value [1, 3] was 2.485. The Score ([1]; bait SLA1-3, label = prey) was 0.
